The values below come from article PMC7504222.

For the assay, the target named is C-X-C motif chemokine receptor 4 (CXCR4) (human (endogenous in primary CD4+ T cells)) (UniProt P61073).
Sequence of UniProt P61073 (P61073 whole entry): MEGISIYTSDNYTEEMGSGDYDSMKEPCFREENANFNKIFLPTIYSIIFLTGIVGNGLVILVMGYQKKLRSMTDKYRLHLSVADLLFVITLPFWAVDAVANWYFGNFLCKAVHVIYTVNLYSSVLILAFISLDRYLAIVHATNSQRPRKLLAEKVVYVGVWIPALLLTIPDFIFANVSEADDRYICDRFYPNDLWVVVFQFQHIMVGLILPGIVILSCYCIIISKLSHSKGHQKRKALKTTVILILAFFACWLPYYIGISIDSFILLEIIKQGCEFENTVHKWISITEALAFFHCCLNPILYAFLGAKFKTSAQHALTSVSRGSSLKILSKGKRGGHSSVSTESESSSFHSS

For the substance “stromal cell-derived factor-1 (SDF-1) (from UniProt P48061 22-93) (ligand)”, the median fluorescence intensity of MitoTracker Deep Red-labelled mitochondria on CD4+ T cells after 2 h co-culture, with 20 µg/mL blocking SDF-1 Ab; flow cytometry is 21.1 and the median fluorescence intensity of MitoTracker Deep Red-labelled mitochondria on CD4+ T cells after 2 h co-culture, without SDF-1 Ab; flow cytometry was 44.8.
